The record followed here is article PMC5487319 (Scientific Reports, 2017).

Where a SMILES comes first, the peptide text is derived from it. The star is where a group is joined. HYNIC = NNc1ccc(C(=O)*)cn1

One data set is described as follows: in vivo. Particulars: male, BALB/c-nude, mouse, iv, 11.1 MBq, total radioactivity.
The subject of data set [1] is A549 tumor-bearing nude mice. Briefly: SPECT planar imaging. Particulars: intravenous administration, 2 hour.
Procedure: (§1) Five-week-old male BALB/c-nude mice were used for preparation of the xenograft tumor models. An A549 lung carcinoma-bearing model was established by subcutaneous injection of A549 cells at a concentration of 5 × 10^6 cells/mouse into the right front flank of the mice.
(§2) SPECT planar imaging was performed when the tumor volume was approximately 1 cm^3. The mice were anesthetized and placed in a supine position. Planar imaging was performed using a low-energy collimator at an energy peak of 140 keV at the indicated time after ^99mTc-labeled peptide (11.1 MBq, 150 μL) injection. The main imaging acquisition parameters were as follows: 128 × 128 matrix, window-width 20%, zoom 2.0, acquisition time 10 min. […] Then, 100,000 counts were acquired per image at each time indicated after the injection. For the blocking study, an excessive amount of HYNIC-peptide or EC-peptide (500 μg/mouse) was injected 30 min prior to radiolabeled peptide injection.
Another data set relates to A549 xenograft tumors. Briefly: Therapeutic evaluation of ^188Re-peptides on A549 tumors. It counts as in vivo, mice. Particulars: 18.5 MBq i.v. at the first and seventh day. On the procedure: Sixty mice were randomly separated into 6 groups once the tumor volumes reached approximately 0.1 cm^3: saline group, ^188ReO4 ^− group (18.5 MBq), non-labeled peptide group (4 μg per mouse) and ^188Re-labeled peptide group (18.5 MBq, 4 μg peptide per mouse) (n = 10). All drugs were administered i.v at the first and seventh day. Tumor size was determined weekly by measuring the length, width, and depth of the tumor using a caliper. Tumor volume was calculated as follows: tumor volume = (length × width × depth) × π/6. The mice were abandoned once dead or body weight loss was more than 20%.
At the end of the therapeutic period, mice were sacrificed, and the tumors were collected and fixed in 4% paraformaldehyde (PFA). Routine hematoxylin and eosin (H&E) staining and TdT-mediated dUTP nick-end labeling (TUNEL) staining were performed for necrosis and apoptosis analysis according to the manufacturer’s instructions.

For the next data set, the target named is VEGFR-1 (Homo sapiens, UniProt P17948). The data set can be described thus: Co-immunoprecipitation of GST-peptide and VEGFR-1. It counts as binding. Particulars: A549 cells, GST-peptide 80 or 185 nmol/L, 12 h, anti-GST or anti-VEGFR-1 antibody, Western blot. On the procedure:
GST-peptide was prepared and purified as previously described. Briefly, pGEX4T-1-peptide plasmid was obtained by peptide gene insertion into pGEX4T-1. Then, the plasmids were transfected into E. coli BL21 (DE3)-competent cells. Subsequently, GST-peptide fusion proteins were collected and purified by Glutathione Sepharose 4B. The obtained proteins were identified by protein electrophoresis.
A549 cells were seeded in 75 cm^2 bottles (1 × 10^4 counts/mL). After 24 h, GST-QKRKRKKSRKKH (80 nmol/L) or GST–RKRKRKKSRYIVLS (185 nmol/L) protein was added, respectively. After 12 h, the culture medium was removed and the cells were washed by PBS and then spalled with IP lysis buffer containing protease inhibitor (4 °C, 30 min). The protein concentration was determined with BCA methods. Protein (600 μg) from supernatant was used for immunoprecipitation (IP) assays with 1 μg anti-GST antibody or 1 μg anti-VEGFR-1 antibody in a reversed Co-IP experiment, while IgG served as the negative group. After washing 3× by TBST, IgG-HRP was added, shaking 2 h at RT, and last for enhanced chemiluminescence imaging.

A further data set has as its target VEGFR (UniProt P17948 27-1338). The data set can be described thus: radioligand binding; receptor competition binding with 125I-VEGF165, peptide concentration varied; details in ref. 28.

VEGFR, sequence (P17948 27-1338): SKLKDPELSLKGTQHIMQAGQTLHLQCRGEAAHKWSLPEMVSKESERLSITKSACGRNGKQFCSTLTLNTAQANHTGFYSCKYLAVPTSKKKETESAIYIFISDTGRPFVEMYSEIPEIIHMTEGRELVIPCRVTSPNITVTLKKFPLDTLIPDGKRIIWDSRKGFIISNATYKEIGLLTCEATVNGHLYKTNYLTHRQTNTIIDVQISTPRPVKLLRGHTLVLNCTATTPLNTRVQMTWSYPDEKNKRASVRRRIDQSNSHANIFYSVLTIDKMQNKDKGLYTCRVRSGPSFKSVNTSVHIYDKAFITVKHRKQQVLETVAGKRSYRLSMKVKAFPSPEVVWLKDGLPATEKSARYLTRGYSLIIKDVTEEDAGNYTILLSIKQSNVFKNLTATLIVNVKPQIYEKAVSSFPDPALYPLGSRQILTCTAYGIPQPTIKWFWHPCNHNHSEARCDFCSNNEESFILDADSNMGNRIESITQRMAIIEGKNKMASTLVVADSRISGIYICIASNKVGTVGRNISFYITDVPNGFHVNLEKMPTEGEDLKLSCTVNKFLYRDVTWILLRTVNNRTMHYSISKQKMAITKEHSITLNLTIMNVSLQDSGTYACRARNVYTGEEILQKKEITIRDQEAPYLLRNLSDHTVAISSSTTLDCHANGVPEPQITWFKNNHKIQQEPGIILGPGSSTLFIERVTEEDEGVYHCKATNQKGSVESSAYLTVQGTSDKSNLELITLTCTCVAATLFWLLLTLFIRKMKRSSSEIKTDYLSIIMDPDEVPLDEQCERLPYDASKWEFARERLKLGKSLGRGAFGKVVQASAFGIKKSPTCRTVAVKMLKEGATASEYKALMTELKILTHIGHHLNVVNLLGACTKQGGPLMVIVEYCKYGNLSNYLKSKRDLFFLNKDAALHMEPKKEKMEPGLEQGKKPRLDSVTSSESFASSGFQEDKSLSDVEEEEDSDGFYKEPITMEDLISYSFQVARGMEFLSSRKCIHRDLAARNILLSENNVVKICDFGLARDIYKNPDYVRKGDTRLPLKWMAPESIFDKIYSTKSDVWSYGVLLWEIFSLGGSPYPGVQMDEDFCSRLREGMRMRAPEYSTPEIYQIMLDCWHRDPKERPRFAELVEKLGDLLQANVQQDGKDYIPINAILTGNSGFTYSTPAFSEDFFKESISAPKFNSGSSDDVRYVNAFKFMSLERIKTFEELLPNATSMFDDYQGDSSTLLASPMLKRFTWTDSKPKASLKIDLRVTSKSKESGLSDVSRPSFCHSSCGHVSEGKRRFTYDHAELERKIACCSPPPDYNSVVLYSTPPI
VEGFR-1, sequence (P17948 27-656 limits assumed): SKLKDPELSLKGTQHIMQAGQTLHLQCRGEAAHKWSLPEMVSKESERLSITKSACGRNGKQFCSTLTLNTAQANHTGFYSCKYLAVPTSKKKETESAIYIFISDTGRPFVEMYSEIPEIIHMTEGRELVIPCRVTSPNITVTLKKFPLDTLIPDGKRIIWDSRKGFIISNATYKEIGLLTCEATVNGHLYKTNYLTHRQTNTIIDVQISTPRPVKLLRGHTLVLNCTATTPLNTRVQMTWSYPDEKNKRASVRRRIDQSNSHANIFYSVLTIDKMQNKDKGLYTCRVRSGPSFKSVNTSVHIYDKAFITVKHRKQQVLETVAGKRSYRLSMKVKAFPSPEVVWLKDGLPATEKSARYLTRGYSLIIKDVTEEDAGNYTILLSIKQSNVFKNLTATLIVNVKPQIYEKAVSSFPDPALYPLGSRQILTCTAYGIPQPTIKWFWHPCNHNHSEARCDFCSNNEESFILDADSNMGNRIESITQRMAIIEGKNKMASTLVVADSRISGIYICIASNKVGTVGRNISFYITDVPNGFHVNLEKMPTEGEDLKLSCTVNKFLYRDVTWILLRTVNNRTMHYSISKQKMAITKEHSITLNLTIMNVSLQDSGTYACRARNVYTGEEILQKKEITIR
Procedure for in vivo: as §1, §2

As for `N=C(N)NCCC[C@H](NC(=O)[C@H](CCCCN)NC(=O)[C@H](CCC(N)=O)NC(=O)c1ccc(NN)nc1)C(=O)N[C@@H](CCCCN)C(=O)N[C@@H](CCCNC(=N)N)C(=O)N[C@@H](CCCCN)C(=O)N[C@@H](CCCCN)C(=O)N[C@@H](CO)C(=O)N[C@@H](CCCNC(=N)N)C(=O)N[C@@H](CCCCN)C(=O)N[C@@H](CCCCN)C(=O)N[C@@H](Cc1c[nH]cn1)C(=O)O` (99mTc complex, metal not drawn) [^99mTc-HYNIC-QKRKRKKSRKKH] ({HYNIC}-QKRKRKKSRKKH-OH), in the data set “in vivo”, the tissue to tissue ratio at 0.5 h was found to be 1.53, the tissue to tissue ratio at 1 h came out at 3.42, the tissue to tissue ratio at 2 h amounted to 4.31 and the tissue to tissue ratio at 4 h stood at 2.62.

For `CC[C@H](C)[C@H](NC(=O)[C@H](Cc1ccc(O)cc1)NC(=O)[C@H](CCCNC(=N)N)NC(=O)[C@H](CO)NC(=O)[C@H](CCCCN)NC(=O)[C@H](CCCCN)NC(=O)[C@H](CCCNC(=N)N)NC(=O)[C@H](CCCCN)NC(=O)[C@H](CCCNC(=N)N)NC(=O)[C@H](CCCCN)NC(=O)[C@H](CCCNC(=N)N)NC(=O)c1ccc(NN)nc1)C(=O)N[C@H](C(=O)N[C@@H](CC(C)C)C(=O)N[C@@H](CO)C(=O)O)C(C)C` (99mTc complex, metal not drawn) [^99mTc-HYNIC-RKRKRKKSRYIVLS] ({HYNIC}-RKRKRKKSRYIVLS-OH), in “in vivo”, the tissue to tissue ratio at 0.5 h worked out at 4.05, the tissue to tissue ratio at 1 h came out at 4.02, the tissue to tissue ratio at 2 h came to 3.76 and the tissue to tissue ratio at 4 h worked out at 2.86.

On to `[Na+].[O]=[188Re](=[O])(=[O])[O-]` [Na^188ReO4], for which the “distribution of radioactivity on SPECT planar imaging” value in data set [1] was “Large amount of radioactivity was observed in thyroids and stomach”. Also, in the data set with A549 xenograft tumors (compared with the saline group, n = 10), the “A549 tumor volume growth” value is “inhibited the tumor volume growth”. Further, in the data set on A549 xenograft tumors (end of the therapeutic period), the “apoptosis in non-necrotic tumor areas (TUNEL staining)” value is on record as “no significant difference in necrosis or apoptosis” and the “necrotic regions in tumor tissue (HE staining)” value was “no significant difference in necrosis or apoptosis”. Also, the “survival of A549 tumor-bearing nude mice” value in the data set with A549 xenograft tumors (n = 10) is “did not improve the survival duration”.

Take “GST-QKRKRKKSRKKH [GST-peptide fusion protein from E. coli BL21 (DE3)]”: at VEGFR-1, the “binding to VEGFR-1 by Co-IP and reversed Co-IP” value is recorded as “could bind to VEGFR-1”.

On to “GST-RKRKRKKSRYIVLS [GST-peptide fusion protein from E. coli BL21 (DE3)]”, for which, on VEGFR-1, the “binding to VEGFR-1 by Co-IP and reversed Co-IP” value was “could combined to VEGFR-1”.

B1: RKRKRKKSRYIVLS (peptide)
peptide: RKRKRKKSRYIVLS
notes: core motif RKRKKSR kept; also called non-labeled peptide; source: synthetic peptide (ChinaPeptides Co., Ltd., SPPS, HPLC purified)
B1: the IC50 – broadly, the concentration that inhibits the measured activity by half – in the data set with VEGFR is 185 nM.

B2: VEGF_(125-136) (peptide)
peptide: QKRKRKKSRYKS
notes: source: synthetic peptide (ChinaPeptides Co., Ltd., SPPS, HPLC purified)
The molecule B2 registered an IC50 with VEGFR of 464 nM. This IC50 lies about 2.5-fold higher than the previous one.

B3: QKRKRKKSRKKH (peptide)
peptide: QKRKRKKSRKKH
notes: as for B1
Molecule B3 had an IC50 with VEGFR of 79.8 nM.
